In the assay the target is T1, AlkG (rubredoxin-2) (Pseudomonas putida, UniProt Q9WWW4).
T1 chain: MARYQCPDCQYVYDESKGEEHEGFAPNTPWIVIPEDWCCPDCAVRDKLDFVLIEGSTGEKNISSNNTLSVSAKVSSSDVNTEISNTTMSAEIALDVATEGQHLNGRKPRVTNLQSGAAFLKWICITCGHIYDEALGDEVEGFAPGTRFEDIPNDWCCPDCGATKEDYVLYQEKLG
The experiment in a line: electrochemical activity titration on AlkG-immobilized screen-printed carbon electrode (one-site and two-site binding model fits).

Broadly, the Kd is the constant that tells how readily two partners part at equilibrium. Lower therefore signals a tighter complex.

B1: AlkB (protein)
chain: MNGKSSVLDSAPEYVDKKKYFWILSTFWPATPMIGIWLANETGWGIFYGLVLAVWYGVLPLLDAMFGEDFNNPPEEVVEKLEKERYYRVLTYLTVPMHYAALIVSAWWVGTQSMSWFEIVALALSLGIVNGLALNTGHELGHKKEAFDRWMAKIVLAVVGYGHFFIEHNKGHHRDVATPMDPATSRMGENIYKFSTREIPGAFRRAWGLEEQRLSRRGQSVWSFDNEILQPMVITVVLYTLLLAFFGPKMLVFLPIQMAFGWWQLTSANYIEHYGLLREKMADGRYEHQKPHHSWNSNHIVSNLVLFHLQRHSDHHAHPTRSYQSLRDFPGLPALPTGYPGAFLMAMIPQWFRSVMDPKVVNWANGDLSKIQIEDSMRAEYIKKFTHNVGADDKRGATAVAS
In turn, B1 showed a Kd of 268 µM.

The values above are taken from paper PMC5566439 (2017).
